In patent CN112300278A (UNIV SHANGHAI JIAOTONG, dated 2021):

Biological target: T1, 人EGFR (human epidermal growth factor receptor) (human, UniProt P00533 25-1210)
T1 construct: whole, on cells; The target is on tumour cell lines that naturally express EGFR; No recombinant EGFR was used; also called 表皮生长因子受体; EGFR分子
Assay: flow cytometry on MAD-MB-231 cells highly expressing EGFR; 293F supernatant (~20ug antibody), FITC donkey anti-human IgG

binding result: binds
B1: CET06 (antibody, V domains shown)
VH: QVQLTQSGPGLVKPSETLSQTCTVSGFSLTNYGVHWVRQSPGKGLEWLGVIWSGGNTDYNTPFTSRLTISVDTSKNQVSLKLSSVTSNDTAVYYCARALTYYDYEFAYWGQGTLVTVSA
VL: DISLTQSPVFLSVTPGEKVESECRASQSIGTNIHWYQQKPDQSPKLLIKYASESISGVPSRFSGSGSGTDFTLTINSVESEDIADYYCQQNNNWPTTFGAGTKLELKR
notes: the summary and claim 2 give the reverse; also called 抗人EGFR嵌合抗体CET06
